For the experiment, the target named is PfCSP full length (Plasmodium falciparum (isolate NF54), UniProt P19597). In words: ELISA AUC.

Experimental findings from PMC10720262 (2023) are described below.

Changes are numbered by the printed parent chain.

Chain of PfCSP full length (P19597 20-375): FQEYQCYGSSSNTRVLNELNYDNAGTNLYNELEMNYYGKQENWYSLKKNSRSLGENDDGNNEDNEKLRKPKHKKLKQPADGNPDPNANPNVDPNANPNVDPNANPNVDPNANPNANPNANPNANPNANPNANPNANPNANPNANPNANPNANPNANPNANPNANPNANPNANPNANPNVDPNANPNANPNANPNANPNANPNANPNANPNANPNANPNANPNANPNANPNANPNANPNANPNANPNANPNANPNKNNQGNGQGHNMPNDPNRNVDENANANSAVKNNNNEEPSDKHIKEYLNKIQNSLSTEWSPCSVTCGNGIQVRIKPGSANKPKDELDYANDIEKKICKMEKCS

B1: CL-445901 (antibody, V domains shown)
VH: QVQLVESGGGVVQPGRSLRLSCAASGFTFSNYGIHWVRQAPGKGLEWVALIWFNGNNKFYADSVEGRFTVSRDNSKNTLYLQLNSLRAEDTAVYYCARAYYFASGNYMDYWGQGTLVTVSS
VL: DIQMTQSPSSVSASMGDRVTITCRASQDISSSLAWYQQKPGKAPILLISFASSLHSGVPSRFSGSGSGTDFTLTISSLQPEDFATYSCQQANSFPWTFGQGTRVEVK
modifications: peptides N-terminally acetylated and C-terminally amidated
On to B1, for which the binding score came out at 2.4.

B2: CL-514716 (antibody, V domains shown)
VH: QIQLVESGGGVVQPGRSLRLSCAASGFTFSTYGMHWVRQAPGKGLEWVAVIWYDGSNKYYADSVQGRFTISRDNSKNTLYLQMNSLRAEDTAIYYCTTVGPIPFDYWGQGTLVTVSS
VL: DIVMTQTPLSSPVILGQPASISCRSSQSLVHSSGNTYLSWLQQRPGQPPRLLIYKTFKRLSGVPDRFSGSGAGTDFTLKISRVEAEDVGVYYCLQSTQFPLTFGGGTKVEIK
modifications: peptides N-terminally acetylated and C-terminally amidated
For the molecule B2, the binding score came to 1.75.

B3: CL-510458 (antibody, V domains shown)
VH: QVQLVESGGGVVQPGRSLRLSCAASGFTFNNYGMHWVRQAPGKGLEWVAVIWYDGSNKFHADSVKGRFTISRDNSKNTLYLQMNSLRAEDTALYYCARVYYYDSGSYLDYWGQGTLVTVSS
VL: DIQMTQSPSSVSASVGDRVTITCRASQGISRWLAWYQQKPGKAPKLLIYAASSLQSGVPSRFSGSGSGTDFTLTISSLQPEDFATYCCQQANNFPWTFGQGTKVEIK
modifications: peptides N-terminally acetylated and C-terminally amidated
B3 gave a binding score of 2.

B4: CL-437092 (antibody, V domains shown)
VH: QVQLVESGGGVVQPGGSLRLSCAASGFTLSSFGIHWVRQAPGKGLEWVALIWHDGSMKYYADSVKGRFTISRDNSKNTVDIQMNSLRVEDTAVYYCARPGIGSPGDHYTMDVWGHGTTVTVSS
VL: not shown
modifications: peptides N-terminally acetylated and C-terminally amidated
With B4, the binding score amounted to 2.5.

B5: Ky230 (antibody, V domains shown)
VH: QVQLVESGGGVVQPGRSLRLSCAASGFTFSDYGMHWVRQAPGKGLEWVAIIWHDGSNKYYVDSVKGRFTISRDNSKNTLYLQMNSLRAEDTAVYYCARAASSFGSGFDYWGQGTLVTVSS
VL: DVVMTQSPLSLPVTLGQPASIFCRSSQSLVYSDGNTYLNWFQRRPGQSPRRLIYKVSDRDSGVPDRFSGSGSGTDFTLQISRVEAEDVGVYYCMQGTHWPPTFGQGTKVEIK
modifications: peptides N-terminally acetylated and C-terminally amidated
B5 displayed a binding score of 2.4.

B6: CL-462788 (antibody, V domains shown)
VH: QVQLVESGGGVVQPGRSLRLSCAASGFTFRNYGMHWVRQAPGKGLEWVAIIWYDGSYKFYADSVKGRFTISRDNSKNTLYLQMNSLRAEDTAMYYCARDDALELRSFDIWGQGTMVTVSS
VL: B5 VL with F22S, G34E, N39S, R43Q, V56I, D58N, Q79K, P101R, K108E
modifications: peptides N-terminally acetylated and C-terminally amidated
Consider B6, for which the binding score was determined as 2.3.

B7: CL-510427 (antibody, V domains shown)
VH: QVQLVESGGGVVQPGRSLRLSCAASGFTFSNYGMHWVRQAPGKGLEWVAVIWYDGSKEDYADSVKGRLTISRDNSKNTLYLQMNSLRAEDTAVYYCARDGDSRGWYAFDYWGQGTLVTVSS
VL: not shown
modifications: peptides N-terminally acetylated and C-terminally amidated
B7 yielded a binding score of 2.39.

B8: CL-512023 (antibody, V domains shown)
VH: QVQLMESGGGVVQPGRSLRLSCEASGFTFSNSGMHWVRQAPGKGLEWVAIIWYDGSNRYYVDSVKGRFTISRDNSKNTLYLQMNSLRAEDTAVYYCARDGGNRYGYGWFDSWGQGTLVTVSS
VL: QSVLTQPPSVSGAPGQRVTISCTGSSSNIGAGYDVHWYQQLPGTAPKLLIYGNTNRPSGVPDRFSGSKSGTSASLAITGLQAEDEADYYCQSYDSSLGGSRRVFGGGTKLTVL
modifications: peptides N-terminally acetylated and C-terminally amidated
B8 had a binding score of 2.59.

B9: CL-509326 (antibody, V domains shown)
VH: QVYLVESGEGVVQPGRSLRLSCAASGFTFSNYGMHWVRQAPGKGLEWVAVIWYNGNNKFYADSVKGRFTISRDNSKNTLFLQMNSLRAEDTAVYFCARSGYSRSSYFDYWGQGTLVTVSS
VL: QSVLTQPPSVSGAPGQRVTISCTGSSSNIGAVYDVHWYQQLPGTAPKLLIYGNTNRPSGVPDRFSGSQSGTSASLAITGLQAEDEADYYCQSYDSSLSGSVFGGGTKLTVL
modifications: peptides N-terminally acetylated and C-terminally amidated
In the case of B9, the binding score turned out to be 2.19.

B10: CL-441816 (antibody, V domains shown)
VH: QEQLVESGGGVVQPGRSLRLSCATSGFTFSTYGLHWVRQSPGKGLEWVTVIWYDGSNKFYADSVKGRFTISRDNSKNTLYLQMNSLRAEDTAVYYCARALYSSRWYGAFDIWGQGTMVTVSS
VL: B9 VL with V32G, Q40L, T54S, Q68K, D94I, S95R
modifications: peptides N-terminally acetylated and C-terminally amidated
B10 registered a binding score of 2.4.

B11: CL-460619 (antibody, V domains shown)
VH: QVQLVESGGGVVQPGRSLRLSCAASGFTFDYYGMHWVRQAPGKGLEGVAIIWYDGSNKFYADSVKGRFTISRDNSKNTLYLQMTSLRVEDTAVYYCARDGRIGDPGPYFDYWGQGTLVTVSS
VL: EIVMTQSPATLSVSPGERPTLSCRASQSVSSKLAWYQQKPDQAPRLLIYGASTRATGIPPRFSGSGSGTEFTLTIDSLQSEDFAVYYCQQYHKWWTFGQGTKVEIK
modifications: peptides N-terminally acetylated and C-terminally amidated
Molecule B11 yielded a binding score of 2.2.

B12: CL-509880 (antibody, V domains shown)
VH: QVQLVESGGGVVQPGRSLRLSCAASGFTFSNSGMHWVRQAPGKGLEWVAVIWYDGSNKYYADSVKGRFTVTRDNSKNTLYLQMNSLRAEDTAVYYCVRAYYGSGSYHFKYGMDVWGQGTTVTVSS
VL: not shown
modifications: peptides N-terminally acetylated and C-terminally amidated
Regarding B12, the binding score was 1.97.

B13: CL-460369 (antibody, V domains shown)
VH: QVQLVESGGGVVQPGRSLRLSCAASGFTFSNYGMHWVRQAPGKGLEWVGIIWYDGSNKYYIDSVKGRFTISRDNSRNTLYLQINSLRAEDTAVYYCARDGGWNDDYYYVMDVWGQGTTVTVSS
VL: DIVMTQSPDSLAVSLGEGATINCKSSQSVLYSSNNKNYLAWYQQKPGQPPKVLIYWASIRESGVPDRFSGSGSGTDFTLTISSLQAEDVAVYYCQQYYSMCSFGQGTKLEIK
modifications: peptides N-terminally acetylated and C-terminally amidated
With B13, the binding score worked out at 2.3.

B14: CL-511296 (antibody, V domains shown)
VH: QVQLVASGGGVVQPGRSQRLSCAASGFTFSNYGMHWVRQSPGRGLEWVAIIWYDGSNKFYADSVKGRFTISRDNSRNTLFLQMNSLRAEDTAIYYCAKSEERTSDNYFKYGMDVWGQGTTVIVST
VL: DIQMTQSPSTLSASVGDRVTITCRASQSISSWLAWYQQKPGKAPKLLIYKASNLESGVPSRFSGSGSGTEFTLSISNLQPDDFATYFCQQYTSYWTFGQGTKVEIK
modifications: peptides N-terminally acetylated and C-terminally amidated
With B14, the binding score came out at 2.34.

B15: CL-512011 (antibody, V domains shown)
VH: QVQLVESGGGVVQPGRSLRLSCVTSGFTFSSFGMHWVRQAPGKGLEWVALIWYDGSHKFYADSLTGRFTISRDNSKNTLYLQMNSLRVEDTAVYYCARAHAVTTANDKYGTDVWGQGTTVNVSP
VL: B14 VL with Q38H, K42N, S74T, N77S, T92N, I105V
modifications: peptides N-terminally acetylated and C-terminally amidated
In turn, B15 yielded a binding score of 2.5.

B16: CL-512275 (antibody, V domains shown)
VH: B15 VH with R16G, L18F, V23E, S31N, A101S, N121T
VL: B14 VL with Q38H, K42R, N53S, V58I, S74T, N77S, T92N
modifications: peptides N-terminally acetylated and C-terminally amidated
In the case of B16, the binding score was found to be 2.54.

B17: CL-511026 (antibody, V domains shown)
VH: QVQLVESGGGVVQPGRSLRLSCAASGFTFSNFGMHWVRQAPDRGLEWVSIIWYDGSNKFYADSVKGRFTISRDNSKNTLFLQMDSLRAEDTAVYYCAKAEMRTSDYYNYGMDVWGQGTTVTVSS
VL: B14 VL with N53S, G68A, S74T, S76R, N77S, F87Y, T92Y, K106N
modifications: peptides N-terminally acetylated and C-terminally amidated
In turn, B17 registered a binding score of 2.08.

B18: CL-464181 (antibody, V domains shown)
VH: QVQLVESGGGAVQAGTSLRLSCAASGFSFSYNGMHWVRQGPGKGLEWVAIIWYDGGNKFYADSVKGRFTISRDNSKKMLYLQMNRLRAEDTAVYYCARAWNFADNKYSMDVWGQGTTVTVSA
VL: B14 VL with S31C, K45Q, N53S, S74T, N77S, F87Y, T92Y, S93I, E104D
modifications: peptides N-terminally acetylated and C-terminally amidated
B18 returned a binding score of 2.4.

B19: CL-510487 (antibody, V domains shown)
VH: QVQLEESGGGVVQPGRSLRLSCTATGFTFSNYGMHWVRQAPGRGLEWVGVIWYDGSNKFYVDSVKGRFTISRDNSKNTLYLQMNSLRAEDTAVYYCARDGGYYGSGSYWWFDSWGQGTLVTVSS
VL: B14 VL with N53S, S56R, S74T, N77S, F87Y, T92N, S93R, W95C, T96S, V103L
modifications: peptides N-terminally acetylated and C-terminally amidated
Consider B19, for which the binding score was determined as 1.83.

B20: CL-513069 (antibody, V domains shown)
VH: QVQLVESGGGVVQPGKSLRLSCEASGFTFSNYGMHWVRQAPGKGLDWVAIIWHDGGNKFYADSVRGRFTISRDNSKNTLFLQMNSLRAEDSAVYYCARVFDFRDSCYTMDVWGQGTTVTVSS
VL: B14 VL with N53S, T72S, S74T, N77S, F87Y, S93R, K102R, K106Q
modifications: peptides N-terminally acetylated and C-terminally amidated
As for B20, the binding score is 2.2.

B21: Ky15.5 (antibody, V domains shown)
VH: QVQMVASGGGVVQPGRSLRLSCAVSGFTFRNFGMHWVRQDPGRGLEWVAIIWYDGSYEFYADSVKGRFTISRDNSKNTLYLQMNSLRAEDTAVYYCARSYGSLTGDETKYGMDVWGQGTTVTVSS
VL: B14 VL with Y36F, N53S, S74T, N77S, F87Y, T92K, S93N
modifications: peptides N-terminally acetylated and C-terminally amidated
Molecule B21 yielded a binding score of 2.4.

B22: CL-513617 (antibody, V domains shown)
VH: QVQLVESGGGVVQPGRSLRLSCAASGFIFSNYGMYWVRQTPDKGLEWVALIWYDGGNKFYSDSVKGRFTVSRDNSKNTLYLQMNSLRDEDTALYYCARAGYFYGSGSSLDKWGQGTLVTVSS
VL: B14 VL with T20S, S31I, N53S, T72S, S74T, N77S, F87Y, T92N, S93R
modifications: peptides N-terminally acetylated and C-terminally amidated
Molecule B22 displayed a binding score of 2.59.

B23: CL-444653 (antibody, V domains shown)
VH: QVQLVESGGGVVQPGRSLRLSCTASGFTFSTYGMHWVRQAPGKGLEWVAIIWYDGGNKFYADSVKGRFTISRDNSKDTLYLQMNSLRAEDTAVYYCAKAWYKVDDKYSMDVWGQGTTVTVSS
VL: B14 VL with N53S, S74T, N77G, F87Y, T92I, S93N
modifications: peptides N-terminally acetylated and C-terminally amidated
B23 showed a binding score of 2.3.
